Columns and labels:
[1] = molecular target: T1, HER1, full length, on transfected HEK293 cells (human, UniProt P00533 25-1210); assay: IHC on HEK293 cells transiently transfected with full length HER1
T1 construct: HEK293 transiently transfected with a plasmid coding for full length HER1; also called EGFR
Experimental: All selected clones were tested for reactivity and specificity in IHC. […] After an additional fixation in formalin overnight the Agarose blocks were embedded in paraffin. Untransfected HEK293 cells were used as negative controls and treated accordingly to the transfected cells. After paraffin embedding 3 μm thin sections were prepared using a microtome. The sections were mounted on glass microscopy slides and dried for 2 h. All further steps of the immunohistochemical staining procedure were carried out using a Ventana Benchmark XT. The slides were dewaxed and antigen retrieval was performed by applying heat for 1 hour. For antigen retrieval the Ventana buffer CC1 was used. The antibodies were used at a concentration of 1 μg/ml. For the detection of bound antibody the Ventana UltraView detection kit was used.

[2] = molecular target: T2, HER3 ECD-HRG complex (Heregulin-activated Her-3 ECD) (human, UniProt P21860 20-643); assay: SPR Biacore 3000, antibody captured, Biacore two-state model, kd1, 25 C; kd1, first step of the two-state fit; not the kd2 used for KDapp
T2 construct: receptor-ligand complex made by preincubating HER3 ECD with a five-fold molar excess of Heregulin; also called Heregulin/Her-3 ECD; Heregulin-complexed Her-3 ECD
Experimental: (§1) A CM5 series sensor was mounted into the system and was normalized in HBS-ET buffer (10 mM HEPES pH 7.4, 150 mM NaCl, 3 mM EDTA, 0.005% w/v Tween 20) according to the manufacturer's instructions. The sample buffer was the system buffer supplemented with 1 mg/ml CMD (Carboxymethyldextran). The system operated at 25° C. 10000 RU RAM-Fey (relative units of Fey-fragment Rabbit Anti-Mouse IgG/Jackson Laboratories) were immobilized according to the manufacturer's instructions using EDC/NHS chemistry on all flow cells. The sensor was deactivated using 1M ethanolamine.

[3] = molecular target: T3, recombinant Thermus thermophilus SlyD FKBP-Her3 (TtSlyD-FKBP-Her3); assay: SPR, antibody captured
T3 construct: expressed in E. coli, the N-terminal methionine can be present or not; also called thermo SlyD-Her3; T.T.SlyD-Her3
T3 chain: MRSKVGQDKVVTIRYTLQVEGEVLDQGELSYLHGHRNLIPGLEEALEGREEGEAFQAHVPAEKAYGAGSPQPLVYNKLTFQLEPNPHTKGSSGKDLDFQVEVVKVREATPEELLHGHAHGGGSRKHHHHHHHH
Experimental: In all assay the test antibodies were captured. The system was under the control of the software version V1.1. The instrument buffer was HBS-EP (10 mM HEPES (pH 7.4), 150 mM NaCl, 1 mM EDTA, 0.05% (w/v) P20). The system operated at 25° C. 30 μg/ml Rabbit polyclonal antibody (RAM IgG, (Rabbit anti Mouse IgG with Fc gamma specificity) GE Healthcare) in 10 mM sodium acetate buffer (pH 4.5) was immobilized using EDC/NHS chemistry according to the manufacturer's instructions on the spots 1, 2, 4 and 5 in the flow cells 1, 2, 3 and 4. The sensor was saturated using 1M ethanolamine. In each flow cell, referenced signals were calculated using spots 1-2 and spots 5-4, spot 3 served as a blanc control. […] The antibody capture level (CL) in response units was monitored. […] Thereafter, the antibody-antigen complex dissociation signal was recorded for 5 min. […] The recorded signal shortly before the end of the injection of the antigen was denoted as binding late (BL) in response units. The recorded signal shortly before the end of the recording of the dissociation is denoted as stability late (SL) in response units. The dissociation rate constants were determined calculated The antibody-antigen complex stability in minutes was calculated with the following formula: […]. The Molar Ratio was calculated with the formula: MW (antibody)/MW (antigen) *BL (antigen)/CL (antibody). […]

[4] = molecular target: T2, HER3 ECD-HRG complex …; assay: SPR Biacore 3000, antibody captured, Biacore two-state model, ka1, 25 C; ka1, first step of the two-state fit
Experimental: as §1

[5] = molecular target: T2, HER3 ECD-HRG complex …; assay: SPR Biacore 3000, antibody captured, Biacore two-state model, apparent KD from ka1 and kd2, 25 C; apparent KD of the two-state model, kd2 / ka1
Experimental: as §1

[6] = molecular target: T4, HER4 ECD peptide hairpin (β-hairpin of HER4), overlapping immobilized 15-mer peptides (human); assay: CelluSpots array of overlapping 15-mer peptides of the HER family hairpins, chemiluminescence
T4 construct: CelluSpots library of 15-mers as for HER3; cysteines replaced by serines; also called HER4 β-hairpin
T4 peptide: PQTFVYNPTTFQLEHNFNA

B1: anti-HER3 antibody M-08-11 (antibody, V domains shown)
VH: QAYLQQSGAELMRPGASVRMSCQASGYTFTSYTIHWLKQTPRQGLEWIGAIYPRNGDFSYNQKFKDKASLTVDTSSSTAYMHLSSLTSEDSAVYFCARTINYGDWFAYWGQGTLVTVSA
VL: DIQMIQSPASLFVSEGETVIITCRASENIYSNLAWYHQKKGKSPQVLVYAAIKLADGVPLRFSGSGSGTQFSLKINSLQSEDFGSYYCQHFWGPPYTFGSGTNLEIK
notes: mouse monoclonal antibody from hybridoma, tested as hybridoma supernatant or as antibody; also called M-011
Q: What does the source list for B1?
A: binding result [1]: no binding; koff [2]: 0.0502 s⁻¹; ratio Ka (Thermus thermophilus SlyD FKBP-Her3)/Ka (HER3-ECD) [3]: ≥ 1.5 ratio; ratio MR (Thermus thermophilus SlyD FKBP-Her3)/MR (HER3-ECD) [3]: ≥ 2 ratio; kon [4]: 45800 M⁻¹ s⁻¹; Kd [5]: 18 nM; binding result [6]: no binding

From patent US20180094062A1 (Hoffmann-La Roche, published 2018)
